Source: publication PMC10009750, “Development of Selective ADAMTS-5 Peptide Substrates to Monitor Proteinase Activity” (Journal of Medicinal Chemistry, 2023)
Where “and” joins values, the source holds several entries; their conditions need not be identical. Equal entries are not always repeated. Non-standard residues stand in square brackets, D forms with d. No end group written: not given here. Tyr(3-NO2) = N[C@@H](Cc1ccc(O)c([N+](=O)[O-])c1)C(=O)O; 2Abz = Nc1ccccc1C(=O)O

What was measured:
[1] = system: MMP-9ΔC (catalytic domain of MMP-9); experiment: Selectivity studies: cleavage of FRET peptide substrates by MMP-9ΔC; format: biochemical; details: ratio of cleavage rates, substrate 20 μM
Procedure: All proteinase assays were performed at 37 °C in a SpectraMax M5 spectrophotometer (Molecular Devices, San Jose, USA) using a 96-well black microplate (Greiner bio-one, Stonehouse, UK) unless otherwise stated. […] N-TIMP-3 was purified as described previously[30] and CT-1746 was a gift from Dr. Yoshifumi Itoh (Kennedy Institute of Rheumatology, University of Oxford). All analyses were carried out using Prism 9 software (GraphPad, La Jolla, CA, USA).
Selectivity studies are described for Abz-TESE↓SRGAIY-Dpa-KK-NH2, the library parent peptide 3, and hit peptides 18–26. A solution of Abz-TESE↓SRGAIY-Dpa-KK-NH2 (22.22 μM) in freshly prepared TNC buffer with 0.005% (v/v) Brij-35 (90 μL) was added to a 96-well clear bottom microplate (Greiner bio-one, Stonehouse, UK) in triplicate. A substrate-only background control was also added in triplicate (90 μL). The resultant solutions were incubated at 37 °C (30 min). An ADAMTS or MMP proteinase was added to substrate wells (10 μL) to give a final proteinase concentration of either 50–90 nM (TS4-4), 25–200 nM (TS5-5), 5–10 nM (MMP-2ΔC), 30 nM (MMP-9ΔC), 92 nM (MMP-1), or 3 μM (MMP-3). TNC buffer with 0.005% (v/v) Brij-35 was added to substrate-only control wells (10 μL). The relative fluorescence intensity was measured at 37 °C for 1 h with readings every 20 s. Activity was read from underneath the microplate, which was covered with a low evaporation lid. […] For each ADAMTS and MMP proteinase, the assay was performed 2–4 times. […] Final rates were expressed as a percentage of substrate cleavage by TS5-5 (mean ± SEM) or in μM s^–1 μM^–1 of proteinase.

TS5-5 (ADAMTS-5) = molecular target: T1, TS5-5 (ADAMTS-5) (Homo sapiens, UniProt Q9UNA0); experiment: Determination of kinetic parameters (kcat and Km) for substrate cleavage by TS5-5, inner-filter corrected; format: biochemical
T1 construct: ADAMTS-5 (i.e. TS5-5, residues 264–555); FLAG; made in house; host or cells: HEK293 cells (previously transfected stocks)
T1 sequence (Q9UNA0 264-555): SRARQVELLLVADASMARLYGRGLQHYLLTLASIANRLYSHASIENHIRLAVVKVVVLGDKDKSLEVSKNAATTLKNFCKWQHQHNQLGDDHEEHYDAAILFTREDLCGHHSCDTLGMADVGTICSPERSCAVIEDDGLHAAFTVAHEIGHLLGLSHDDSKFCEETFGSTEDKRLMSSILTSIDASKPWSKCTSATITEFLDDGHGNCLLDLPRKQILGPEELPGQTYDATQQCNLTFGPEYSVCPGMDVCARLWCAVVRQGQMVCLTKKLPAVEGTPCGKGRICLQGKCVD
Procedure: A solution of Abz-TESE↓SRGAIY-Dpa-KK-NH2/3/26 (5 mM) or 19/23 (1 mM) in DMSO underwent a 2-fold serial dilution with freshly prepared TNC buffer containing 0.005% (v/v) Brij-35. This gave initial concentrations in the following range: 222.22 to 0.87 μM (Abz-TESE↓SRGAIY-Dpa-KK-NH2/3/23/26) and 177.78 to 1.39 μM (19). Eight substrate concentrations (180 μL) within these ranges (including outer numbers) were added to a 96-well black microplate in triplicate and incubated at 37 °C (20 min). TNC buffer with 0.005% (v/v) Brij-35 was added to substrate-only control wells in a single replicate (180 μL). TS5-5 proteinase was thawed from −80 or −20 °C, made up in TNC buffer with 0.005% (v/v) Brij-35 (300 nM) and added to substrate wells (20 μL). TNC buffer was added to substrate-only control wells (20 μL). Fluorescence intensity was measured at 37 °C for 1 h with readings every 20 s. The rate of substrate cleavage was determined at each substrate concentration and expressed as the mean ± SEM in μM s^–1. The subsequent data was fitted to the Michaelis–Menten eq 2: [drawing 2] 2 where v is the rate of the reaction, Vmax is the maximal rate of the reaction, Km is the Michaelis constant, and [S] is the substrate concentration. This equation enabled the Km value to be determined. The catalytic rate constant kcat was determined from eq 3: [drawing 3] 3 where [E] is the concentration of proteinase, and kcat and Vmax are as defined previously. These initial Km and kcat parameters were determined from n = 3–4 independent experiments with final values for these parameters reported after a correction for the inner-filter effect.
This was performed based on the protocol described in Liu et al.([40]) to correct for quenching of the released Abz fluorophore by uncleaved substrate. Two sets of initial substrate concentrations were prepared as described in the previous section. Both sets of substrate concentrations (180 μL) were added to a 96-well black microplate in triplicate. Two buffer-alone controls with TNC buffer containing 0.005% (v/v) Brij-35 (180 μL) were also added in triplicate. All solutions were incubated at 37 °C (20 min). Abz fluorophore (1 M) in DMSO was serially diluted to 1 mM in DMSO, before further dilution to 100 μM using TNC buffer containing 0.005% (v/v) Brij-35. TNC buffer containing 0.005% (v/v) Brij-35 (20 μL) was added to the first set of substrate concentrations as well as to the first buffer-alone control. Abz fluorophore (20 μL, 100 μM) was added to the second set of substrate concentrations as well as the second buffer-alone control. The end-point fluorescence intensity was measured at 37 °C using λex = 300 nm and λem = 430 nm. At each substrate concentration, […] to give the actual fluorescence of the Abz fluorophore (RFUAbz). These values were divided by RFUAbz at a substrate concentration of 0 μM to give the correction factor for each concentration. The rates for each substrate concentration described in the previous section were divided by their respective correction factors (Tables S6–S10) to deliver the inner-filter corrected kcat and Km values.

[2] = TS5-5, TNC buffer with 0.005% (v/v) Brij-35, 37 °C, corrected for inner filter effect, mean ± SEM from 3–4 independent experiments in triplicate
[3] = TS5-5, TNC buffer with 0.005% (v/v) Brij-35, 37 °C, corrected for inner filter effect, mean ± SEM from 3–4 independent experiments in triplicate, listed as current substrate
[4] = supplementary CSV copy of Table 3, TS5-5, 37 °C

Abz-TESE↓SRGAIY-Dpa-KK-NH2 [current, ortho-aminobenzoyl(Abz)-TESE↓SRGAIY-N-3-[2,4-dinitrophenyl]-L-2,3-diaminopropionyl(Dpa)-KK-NH2, reference compound]
preference (selectivity) for TS5-5 over MMP-9ΔC [1]: ~213 fold | Km (TS5-5 (ADAMTS-5); [2]): 125 ± 5 µM | kcat (TS5-5 (ADAMTS-5); [2]): 3.61 ± 0.31 s⁻¹ | kcat/Km (TS5-5 (ADAMTS-5); [2]): 29100 ± 3090 M⁻¹ s⁻¹ | kcat (TS5-5 (ADAMTS-5); [3]): 3.61 s⁻¹ | kcat/Km (TS5-5 (ADAMTS-5); [3]): 29100 M⁻¹ s⁻¹ | kcat (TS5-5 (ADAMTS-5); [4]): 3.61 ± 0.31 s⁻¹

KY(NO2)SENESRGK(Abz)IYYKKG (K[Tyr(3-NO2)]SENESRGK(2Abz)IYYKKG) [Compound 26]
preference (selectivity) for TS5-5 over MMP-9ΔC [1]: ~548 fold | decrease in Km compared to the current substrate (TS5-5 (ADAMTS-5); TS5-5): ~2 fold | higher catalytic efficiency (kcat/Km) compared to the current substrate (TS5-5 (ADAMTS-5); TS5-5): ~1.5 fold | Km (TS5-5 (ADAMTS-5); [2]): 76.9 ± 6.4 µM | kcat (TS5-5 (ADAMTS-5); [2]): 3.32 s⁻¹ and 3.32 ± 0.31 s⁻¹ | kcat/Km (TS5-5 (ADAMTS-5); [2]): 44400 M⁻¹ s⁻¹ and 44400 ± 6690 M⁻¹ s⁻¹ | kcat (TS5-5 (ADAMTS-5); [4]): 3.32 ± 0.31 s⁻¹

KY(NO2)TESESRGK(Abz)IYYKKG (K[Tyr(3-NO2)]TESESRGK(Abz)IYYKKG) [Compound 3]
preference (selectivity) for TS5-5 over MMP-9ΔC [1]: ~2561 fold | decrease in Km compared to the current substrate (TS5-5 (ADAMTS-5); TS5-5): ~4 fold | higher catalytic efficiency (kcat/Km) compared to the current substrate (TS5-5 (ADAMTS-5); TS5-5): ~2 fold | lower catalytic rate constant (kcat) compared to the current substrate (TS5-5 (ADAMTS-5); TS5-5): ~2 fold | Km (TS5-5 (ADAMTS-5); [2]): 29.5 ± 1.7 µM | kcat (TS5-5 (ADAMTS-5); [2]): 1.87 s⁻¹ and 1.87 ± 0.15 s⁻¹ | kcat/Km (TS5-5 (ADAMTS-5); [2]): 63200 M⁻¹ s⁻¹ and 63200 ± 1840 M⁻¹ s⁻¹ | kcat (TS5-5 (ADAMTS-5); [4]): 1.87 ± 0.15 s⁻¹
